B1: m1033-2 (VH-2) human anti-CD33 VH domain binder, soluble (VHH)
VHH: EVQLVESGGGLVQPGGSLRLSCAASGFTFSSYGMSWVRQAPRKGLEWIGEINHSGSTNYNPSLKSRVTISRDNSKNTLYLQMNSLRAEDTATYYCARPLNYYYYYMDVWGKGTTVTVSS
notes: Human heavy chain variable domain only (not camelid), from a phage library, expressed in E. coli HB2151 and purified on Ni-NTA; also called CD33 VH-2; not shown: His and Flag tags
B2: m1033-4 (VH-4) human anti-CD33 VH domain binder, soluble (VHH)
VHH: EVQLVESGGGLVQPGGSLRLSCAASGFTFSSYGMSWVRQAPRQGLEWVANIKQDGSEKYYADSVKGRFTISRDNSKNTLYLQMNSLRAEDTATYYCAKENVDWGQGTLVTVSS
notes: Human heavy chain variable domain only (not camelid), from a phage library, expressed in E. coli HB2151 and purified on Ni-NTA; also called CD33_4; CD33 VH-4; not shown: His and Flag tags
B3: m1033-9 (ScFv9) human anti-CD33 ScFv binder, soluble (scFv)
scFv: QVQLVQSGAEVKKPGESLRISCKGSGFSFPTYWIGWVRQMPGKGLEWMGIIYPGDSDTRYSPSFQGQVTISADKSISTAYLQWSSLKASDTAMYYCARLVGDGYNTGAFDIWGQGTMVTVSSGGGGSGGGGSGGGGSDIVMTHTPLSLSVTPGQPASISCKSSQSLLHSNGKTYLYWYLQKPGQPPQLLIYGASNRFSGVPDRFSGSGSGTDFTLKISRVEAEDVGVYYCMQSIQLPITFGQGTRLEIK
notes: also called CD33 ScFv 9; not shown: His and Flag tags
B4: m1033-10 (ScFv10) human anti-CD33 ScFv binder, soluble (scFv)
scFv: QVQLQQSGPGLVKPSQTLSLTCAISGDSVSSNTAAWNWIRQSPSRGLEWLGRTYYRSKWYNDYAVPVKSRITINPDTSKNQFSLQLNSVTPEDTAVYYCARETYYYGSGSYWDAFDIWGQGTTVTVSSGGGGSGSGGSGGGGSQSVVTQPPSVSAAPGQKVTISCSGSSSNIGNNYVSWYQQLPGTAPKLFIYKNNQRPSEVPDRFSGSKSGTSASLAISGLQSDDEADYYCAAWDDRLNGYVFGTGTKVTVL
notes: also called CD33 ScFv 10; not shown: His and Flag tags
B5: m1033-12 (ScFv12) human anti-CD33 ScFv binder, soluble (scFv)
scFv: QVQLQQSGPGLVKPSQTLSLTCAISGDSVSSNSAAWNWIRQSPSRGLEWLGGTYYRSKWYNDYAVSVKSRIIINADTSKNQFSLQLNSVTPEDTAVYYCARGYYYDSTDWFDPWGQGTLVTVSSGGGGSGGGGSGGGGSSSELTQDPTVSVALGQTVRITCQGDSLRSYYASWYQQKPGQAPVLVIYGKNNRPSGIPDRFSGSSSGNTASLTITGAQAEDEADYYCSSRDGSGHPYLFGPGTKVTVL
notes: also called CD33 ScFv 12; not shown: His and Flag tags
B6: m1033-15 (ScFv15) human anti-CD33 ScFv binder, soluble (scFv)
scFv: EVQLVQSGAEVKKPGESLKISCKGSGYSFTSYWIGWVRQMPGKGLEWMGIIYPGDSDTRYSPSFQGQVTISADKSISTAYLQWSSLKASDTAMYYCARLTTAGGMDVWGQGTTVTVSSGGGGSGGGGSGGGGSEIVLTQSPLSLPVTLGQPASISCRSSQSLVHSDGNTYLSWLHQRPGQPPRLLMYKISNRFSGVTDRFSGSGSGTDFTLKISRVEAEDVGVYYCMQGIHLPLTFGGGTKLEIK
notes: also called CD33 ScFv 15; not shown: His and Flag tags

These binders were tested against T1, recombinant human CD33 (human, UniProt P20138 18-259, limits assumed) (assay: ELISA, coated recombinant human CD33, purified His/Flag-tagged VH, anti-Flag-HRP).
T1 construct: also called coated CD33
T1 sequence (P20138 18-259 limits assumed): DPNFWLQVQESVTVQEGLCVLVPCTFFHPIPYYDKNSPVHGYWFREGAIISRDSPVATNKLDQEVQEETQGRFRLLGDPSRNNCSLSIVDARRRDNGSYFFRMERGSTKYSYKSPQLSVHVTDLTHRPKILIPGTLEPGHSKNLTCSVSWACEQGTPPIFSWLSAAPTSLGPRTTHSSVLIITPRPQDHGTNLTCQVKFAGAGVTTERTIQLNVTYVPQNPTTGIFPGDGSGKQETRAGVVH
Method: (§1) 50 μl of the diluted recombinant human CD33 in PBS at 2 ug/ml was coated in a 96-well plate at 4° C. overnight. Purified ScFv or VHs (from above) with His and Flag tags were serially diluted and added into the target protein coated wells. After washing, a 1:3000 diluted HRP conjugated anti-Flag antibody was added for 1 hr at RT. After washing, 3, 3, 5, 5′-Tetramethylbenzidine (TMB) substrate was added, 1N H₂SO₄ was added to stop the reaction after incubation at room temperature for 10 minutes, and the O.D. was read at 450 nm to quantify the relative ability of ScFv to bind CD33.
B1: binds.
B2: binds.

The binders below were run against T1, recombinant human CD33 (assay: ELISA, coated recombinant human CD33, purified His/Flag-tagged ScFv, anti-Flag-HRP).
Method: as §1
B3: binds.
B4: binds.
B5: binds.
B6: binds.

From US20200101109A1 (LENTIGEN TECHNOLOGY, published 2020)
